B1: [Gd/DOTA-NH-CH2-(1,3-Ph)-C(═O)-Met-Gly-Lys*-Z2(#N)]p-Fab^2 (Fab, V domains shown)
VH: EVQLVESGGGLVQPGGSLRLSCAASGFNIRDTYMHWVRQAPGKGLEWVARIDPANGNSRYVPKFQGRFTISADTSRNTAYLQMNSLRAEDTAVYYCAPFGYYVSDYAMAYWGQGTLVTVSS
VL: DIQLTQSPSSLSASVGDRVTITCRAGESVDIFGVGFLHWYQQKPGKAPKLLIYRASNLESGIPSRFSGSGSRTDFTLTISSLQPEDFATYYCQQTNEDPYTFGQGTKVEIKR
modifications: labeling may sit on this chain; sites not stated; labeling portion (MW 1089) on amino groups of the Fab, sites and chain not stated; 1-3 per Fab by MS
notes: also called Ex-No 13; Conjugate No. 13
B2: (Y-S1-X)p-Fab^2 with Y Gd/DOTA, S1 -NH-CH2-(1,3-Ph)-C(═O)-, X -Gly-Tyr*-CH2-C(═O)-NH-(CH2)2-Z1(#N)- (Fab, V domains shown)
VH: EVQLVESGGGLVQPGGSLRLSCAASGFNIRDTYMHWVRQAPGKGLEWVARIDPANGNSRYVPKFQGRFTISADTSRNTAYLQMNSLRAEDTAVYYCAPFGYYVSDYAMAYWGQGTLVTVSS
VL: DIQLTQSPSSLSASVGDRVTITCRAGESVDIFGVGFLHWYQQKPGKAPKLLIYRASNLESGIPSRFSGSGSRTDFTLTISSLQPEDFATYYCQQTNEDPYTFGQGTKVEIKR
modifications: labeling may sit on this chain; sites not stated; labeling portion (MW 1093) on amino groups of the Fab, sites and chain not stated; 1-3 per Fab by MS
notes: also called Ex-No 14; conjugate 14
B3: [Gd/DOTA-NH-(CH2CH2O)3-CH2-C(═O)-NH-CH2-(1,3-Ph)-C(═O)-Gly-Lys*-Z2(#N)]p-Fab^2 (Fab, V domains shown)
VH: EVQLVESGGGLVQPGGSLRLSCAASGFNIRDTYMHWVRQAPGKGLEWVARIDPANGNSRYVPKFQGRFTISADTSRNTAYLQMNSLRAEDTAVYYCAPFGYYVSDYAMAYWGQGTLVTVSS
VL: DIQLTQSPSSLSASVGDRVTITCRAGESVDIFGVGFLHWYQQKPGKAPKLLIYRASNLESGIPSRFSGSGSRTDFTLTISSLQPEDFATYYCQQTNEDPYTFGQGTKVEIKR
modifications: labeling may sit on this chain; sites not stated; labeling portion (MW 1147) on amino groups of the Fab, sites and chain not stated; 1-3 per Fab by MS
notes: also called Ex-No 15; Conjugate No. 15
B4: (Y-S1-X)p-Fab^2 with Y Gd/DOTA, S1 - (bond), X -Gly-Tyr*-CH2-C(═O)-NH-(CH2O)3-CH2-C(═O)-NH-(CH2)2-Z1(#N)- (Fab, V domains shown)
VH: EVQLVESGGGLVQPGGSLRLSCAASGFNIRDTYMHWVRQAPGKGLEWVARIDPANGNSRYVPKFQGRFTISADTSRNTAYLQMNSLRAEDTAVYYCAPFGYYVSDYAMAYWGQGTLVTVSS
VL: DIQLTQSPSSLSASVGDRVTITCRAGESVDIFGVGFLHWYQQKPGKAPKLLIYRASNLESGIPSRFSGSGSRTDFTLTISSLQPEDFATYYCQQTNEDPYTFGQGTKVEIKR
modifications: labeling may sit on this chain; sites not stated; labeling portion (MW 1149) on amino groups of the Fab, sites and chain not stated; 1-2 per Fab by MS
notes: also called Ex-No 17; conjugate 17
B5: [Gd/DOTA-NH-CH2-(1,4-Ph)-NH-C(═O)-Met-Ile-NH-(CH2)2-Z1(#N)]p-Fab^2 (Fab, V domains shown)
VH: EVQLVESGGGLVQPGGSLRLSCAASGFNIRDTYMHWVRQAPGKGLEWVARIDPANGNSRYVPKFQGRFTISADTSRNTAYLQMNSLRAEDTAVYYCAPFGYYVSDYAMAYWGQGTLVTVSS
VL: DIQLTQSPSSLSASVGDRVTITCRAGESVDIFGVGFLHWYQQKPGKAPKLLIYRASNLESGIPSRFSGSGSRTDFTLTISSLQPEDFATYYCQQTNEDPYTFGQGTKVEIKR
modifications: labeling may sit on this chain; sites not stated; labeling portion (MW 1074) on amino groups of the Fab, sites and chain not stated; 1-3 per Fab by MS
notes: also called Ex-No 18; Conjugate No. 18
B6: (Y-S1-X)p-Fab^2 with Y Gd/DOTA, S1 - (bond), X -Gly-Tyr-Lys*-Z2(#N)- (Fab, V domains shown)
VH: EVQLVESGGGLVQPGGSLRLSCAASGFNIRDTYMHWVRQAPGKGLEWVARIDPANGNSRYVPKFQGRFTISADTSRNTAYLQMNSLRAEDTAVYYCAPFGYYVSDYAMAYWGQGTLVTVSS
VL: DIQLTQSPSSLSASVGDRVTITCRAGESVDIFGVGFLHWYQQKPGKAPKLLIYRASNLESGIPSRFSGSGSRTDFTLTISSLQPEDFATYYCQQTNEDPYTFGQGTKVEIKR
modifications: labeling may sit on this chain; sites not stated; labeling portion (MW 988) on amino groups of the Fab, sites and chain not stated; 1-4 per Fab by MS
notes: also called Ex-No 19; conjugate 19
B7: (Y-S1-X)p-Fab^2 with Y Gd/DOTA, S1 - (bond), X -Gly-Lys*-Z2(#N)- (Fab, V domains shown)
VH: EVQLVESGGGLVQPGGSLRLSCAASGFNIRDTYMHWVRQAPGKGLEWVARIDPANGNSRYVPKFQGRFTISADTSRNTAYLQMNSLRAEDTAVYYCAPFGYYVSDYAMAYWGQGTLVTVSS
VL: DIQLTQSPSSLSASVGDRVTITCRAGESVDIFGVGFLHWYQQKPGKAPKLLIYRASNLESGIPSRFSGSGSRTDFTLTISSLQPEDFATYYCQQTNEDPYTFGQGTKVEIKR
modifications: labeling may sit on this chain; sites not stated; labeling portion (MW 825) on amino groups of the Fab, sites and chain not stated; 1-3 per Fab by MS
notes: also called Ex-No 20; conjugate 20
B8: (Y-S1-X)p-Fab^2 with Y Gd/DOTA, S1 - (bond), X -Gly-Tyr*-CH2(═O)-NH-(CH2)2-Z1(#N)- (Fab, V domains shown)
VH: EVQLVESGGGLVQPGGSLRLSCAASGFNIRDTYMHWVRQAPGKGLEWVARIDPANGNSRYVPKFQGRFTISADTSRNTAYLQMNSLRAEDTAVYYCAPFGYYVSDYAMAYWGQGTLVTVSS
VL: DIQLTQSPSSLSASVGDRVTITCRAGESVDIFGVGFLHWYQQKPGKAPKLLIYRASNLESGIPSRFSGSGSRTDFTLTISSLQPEDFATYYCQQTNEDPYTFGQGTKVEIKR
modifications: labeling may sit on this chain; sites not stated; labeling portion (MW 960) on amino groups of the Fab, sites and chain not stated; 1-4 per Fab by MS
notes: also called Ex-No 21; conjugate 21

The binders below were run against T1, CEACAM5 (R&D Systems, 4128-CM-050) (human, UniProt P06731 35-685) (assay: ELISA on immobilised CEACAM5, 4-parameter fit, duplicate).
T1 construct: Immobilised on the ELISA plate; also called human CEACAM5
T1 sequence (looked up): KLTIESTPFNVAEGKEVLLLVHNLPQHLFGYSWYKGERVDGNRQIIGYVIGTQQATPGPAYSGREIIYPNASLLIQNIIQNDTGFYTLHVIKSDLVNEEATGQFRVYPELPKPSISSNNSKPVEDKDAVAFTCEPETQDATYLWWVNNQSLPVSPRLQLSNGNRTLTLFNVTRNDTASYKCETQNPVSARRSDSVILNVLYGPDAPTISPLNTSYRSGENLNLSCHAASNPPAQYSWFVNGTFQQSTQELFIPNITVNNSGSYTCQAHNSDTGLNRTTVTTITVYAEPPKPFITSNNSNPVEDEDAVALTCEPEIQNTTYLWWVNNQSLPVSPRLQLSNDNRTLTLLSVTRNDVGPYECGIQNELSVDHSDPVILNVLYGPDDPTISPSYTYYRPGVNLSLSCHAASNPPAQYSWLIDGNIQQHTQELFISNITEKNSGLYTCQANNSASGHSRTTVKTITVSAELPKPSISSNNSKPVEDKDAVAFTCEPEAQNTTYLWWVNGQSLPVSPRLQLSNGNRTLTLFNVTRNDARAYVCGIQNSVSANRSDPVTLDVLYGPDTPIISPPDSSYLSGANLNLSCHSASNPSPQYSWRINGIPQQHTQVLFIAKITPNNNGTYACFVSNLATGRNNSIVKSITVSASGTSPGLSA
Description: Each anti-human CEACAM5 antibody Fab fragment conjugate prepared in Example 2 was subjected to ELISA to evaluate the binding activity thereof to CEACAM5. In the present test, a phosphate buffer (Nacalai Tesque Inc., 0.1 mol/L-Phosphate Buffer Solution (pH 7.2)) prepared to 10 mM by diluting 10-fold with distilled water was used as a solvent for an antigen immobilization liquid, and 20×PBS/Tween 20 Buffer (Thermo Fisher Scientific Inc., 28352) diluted 20-fold with distilled water was used as a wash liquid. In addition, for bovine serum albumin (BSA) used in the present test, 30% Bovine Serum Albumin solution (Sigma-Aldrich, Inc., A9576-50ML) was added in an appropriate proportion for use. CEACAM5 (R&D Systems, 4128-CM-050) was diluted with a 10 mM phosphate buffer (pH 7.2) to 0.1 μg/mL, and added to a Nunc MaxiSorp White 384 plate (Nunc, 4603272) at 30 μL per well, and the plate was incubated overnight at 4° C. for immobilization. The CEACAM5 immobilization liquid was removed by reverse centrifugation, and then blocking was carried out by adding a PBS/Tween 20 buffer containing 5.0% BSA. Thereafter, the blocking solution was removed by reverse centrifugation, a solution of each CEACAM5 antibody Fab² fragment conjugate described above or a Fab² fragment having no labeling portion (PB009-01) as a control at about 10000 ng/mL was diluted in 14 steps by 3-fold dilution using a PBS/Tween 20 buffer containing 1.0% BSA, and 30 μL was added per well and incubated at room temperature for 60 minutes. The plate was washed 3 times with a PBS/Tween 20 buffer, and Horseradish Peroxidase (HRP)-labeled goat anti-human IgG (H+L chain) antibody (MBL Life Sciences, 206) diluted 1000-fold using a PBS/Tween 20 buffer containing 5.0% BSA was added at 30 μL per well and incubated at room temperature for 30 minutes. The plate was washed 3 times with a PBS/Tween 20 buffer, and ECL Prime Western Blotting DETECTION Reagent (GE Healthcare, RPN2232) as a substrate was added at 30 μL per well. The substrate was incubated at room temperature for 15 minutes, and then a signal value thereof was measured using an Envision counter (PerkinElmer, Inc.).
The test for each antibody was carried out in duplicate, and an EC₅₀ value was calculated using a 4-parameter logistic curve model.
For B1, the EC50 was 140 pM. Work on B2 yielded an EC50 of 130 pM. B3 was tested, and the EC50 was 130 pM. Work on B4 yielded an EC50 of 230 pM. In the case of B5, the EC50 is reported as 240 pM. B6 showed an EC50 of 260 pM. B7 was tested, and the EC50 was 220 pM. For B8, the EC50 was 270 pM.
